The values below come from article doi:10.1101/2020.12.02.409011 (bioRxiv, 2020).

The data set concerns the molecule itself. Nature of the data set: crystal structure.

B1: Bacillus subtilis PurR (purine synthesis transcription regulator), untagged (natural protein)
chain: MKFRRSGRLVDLTNYLLTHPHELIPLTFFSERYESAKSSISEDLTIIKQTFEQQGIGTLLTVPGAAGGVKYIPKMKQAEAEEFVQTLGQSLANPERILPGGYVYLTDILGKPSVLSKVGKLFASVFAEREIDVVMTVATKGIPLAYAAASYLNVPVVIVRKDNKVTEGSTVSINYVSGSSNRIQTMSLAKRSMKTGSNVLIIDDFMKAGGTINGMINLLDEFNANVAGIGVLVEAEGVDERLVDEYMSLLTLSTINMKEKSIEIQNGNFLRFFKDNLLKNGETES
With B1, the binding result is “binds”.
